From publication PMC8564274 (Signal Transduction and Targeted Therapy, 2021)

Tests used:
[1] = biological target: T1, prefusion-stabilized ectodomain of the SARS-CoV-2 spike (SARS-CoV-2, WH01, stabilised); test: BLI; conditions: both partners purified
[2] = biological target: T1, prefusion-stabilized ectodomain of the …; test: cell-based or functional assay

B1: n3113.1 (VHH)
VHH: EVQLVESGGGLVQPGGSLRLSCAASDSSFYDYEMSWVRQAPGKAQEWIGSMYPSGRTYINPSLKSLVTISRDNSKNTLYLQLNSLRAEDTAMYYCVSNWASGSTGDYWGQGTLVTVSS
Q: For B1, which Kd [1] is on record?
A: The Kd was 63.8 nM.

Q: What about the “IC50 of neutralisation of SARS-CoV-2 S pseudovirus” value [2] of the same binder?
A: The value was 6 µg/mL.
